Measured values: publication PMC12416549 (2024)
Where a chain is given by its changes, count along the chain named. Numbers in names are those of the source.

B1: V60E (designed binder)
chain: MTLQELLREEALRRAEAEAFRYALELLAEKFPEQKEYLLDLAEEIESQIRSLSGVDVEDERKFLDKEWAWVKELLAEHPAELAEVEAARAARLAELRAEVEAKVAA
B2: L6M (designed binder)
chain: B1 chain with L6M, E60V
B3: W68H (designed binder)
chain: B1 chain with E60V, W68H
B4: R92G (designed binder)
chain: B1 chain with E60V, R92G
B5: L41T (designed binder)
chain: B1 chain with L41T, E60V
B6: R50A (designed binder)
chain: B1 chain with R50A, E60V
B7: V104F (designed binder)
chain: B1 chain with E60V, V104F
B8: K35A (designed binder)
chain: B1 chain with K35A, E60V
B9: A88G (designed binder)
chain: B1 chain with E60V, A88G
B10: S53C (designed binder)
chain: B1 chain with S53C, E60V
B11: L82K (designed binder)
chain: B1 chain with E60V, L82K
B12: F31N (designed binder)
chain: B1 chain with F31N, E60V
B13: R14L (designed binder)
chain: B1 chain with R14L, E60V
B14: V71F (designed binder)
chain: B1 chain with E60V, V71F
B15: A91C (designed binder)
chain: B1 chain with E60V, A91C
B16: V71Y (designed binder)
chain: B1 chain with E60V, V71Y
B17: E73A (designed binder)
chain: B1 chain with E60V, E73A
B18: A11V (designed binder)
chain: B1 chain with A11V, E60V
B19: E99D (designed binder)
chain: B1 chain with E60V, E99D
B20: A105Y (designed binder)
chain: B1 chain with E60V, A105Y
B21: Y37C (designed binder)
chain: B1 chain with Y37C, E60V
B22: A23G (designed binder)
chain: B1 chain with A23G, E60V
B23: L26Y (designed binder)
chain: B1 chain with L26Y, E60V
B24: K103M (designed binder)
chain: B1 chain with E60V, K103M
B25: L7W (designed binder)
chain: B1 chain with L7W, E60V
B26: L27M (designed binder)
chain: B1 chain with L27M, E60V
B27: V71L (designed binder)
chain: B1 chain with E60V, V71L
B28: A28R (designed binder)
chain: B1 chain with A28R, E60V
B29: F20W (designed binder)
chain: B1 chain with F20W, E60V
B30: E16V (designed binder)
chain: B1 chain with E16V, E60V
B31: F63H (designed binder)
chain: B1 chain with E60V, F63H
B32: D59A (designed binder)
chain: B1 chain with D59A, E60V
B33: R92S (designed binder)
chain: B1 chain with E60V, R92S
B34: W70A (designed binder)
chain: B1 chain with E60V, W70A
B35: K72N (designed binder)
chain: B1 chain with E60V, K72N
B36: L7E (designed binder)
chain: B1 chain with L7E, E60V
B37: R92P (designed binder)
chain: B1 chain with E60V, R92P
B38: A102F (designed binder)
chain: B1 chain with E60V, A102F
B39: L6G (designed binder)
chain: B1 chain with L6G, E60V
B40: L6I (designed binder)
chain: B1 chain with L6I, E60V
B41: P79I (designed binder)
chain: B1 chain with E60V, P79I
B42: V60L (designed binder)
chain: B1 chain with E60L
B43: A42V (designed binder)
chain: B1 chain with A42V, E60V
B44: F20V (designed binder)
chain: B1 chain with F20V, E60V
B45: R13D (designed binder)
chain: B1 chain with R13D, E60V
B46: A76Q (designed binder)
chain: B1 chain with E60V, A76Q
B47: E18G (designed binder)
chain: B1 chain with E18G, E60V
B48: E46L (designed binder)
chain: B1 chain with E46L, E60V
B49: A102I (designed binder)
chain: B1 chain with E60V, A102I
B50: A83H (designed binder)
chain: B1 chain with E60V, A83H
B51: L27G (designed binder)
chain: B1 chain with L27G, E60V
B52: H78E (designed binder)
chain: B1 chain with E60V, H78E
B53: K66Q (designed binder)
chain: B1 chain with E60V, K66Q
B54: E86S (designed binder)
chain: B1 chain with E60V, E86S
B55: E84S (designed binder)
chain: B1 chain with E60V, E84S
B56: E16C (designed binder)
chain: B1 chain with E16C, E60V
B57: A11P (designed binder)
chain: B1 chain with A11P, E60V
B58: A106S (designed binder)
chain: B1 chain with E60V, A106S
B59: A11S (designed binder)
chain: B1 chain with A11S, E60V

Molecular target: T1, TNFR1 (Homo sapiens, UniProt P19438)
T1 chain: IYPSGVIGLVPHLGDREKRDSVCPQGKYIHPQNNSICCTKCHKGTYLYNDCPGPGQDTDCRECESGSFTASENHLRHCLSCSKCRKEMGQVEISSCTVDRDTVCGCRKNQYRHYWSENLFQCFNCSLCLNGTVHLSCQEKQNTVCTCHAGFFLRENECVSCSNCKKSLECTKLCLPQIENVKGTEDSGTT
Experiment: yeast display SC50

| Binder | apparent Kd (screen) |
| --- | --- |
| B1 | 4.39 nM |
| B2 | 1.86 nM |
| B3 | 2.73 nM |
| B4 | 0.593 nM |
| B5 | 0.539 nM |
| B6 | 0.539 nM |
| B7 | 0.539 nM |
| B8 | 1.27 nM |
| B9 | 0.79 nM |
| B10 | 24.4 nM |
| B11 | 2.48 nM |
| B12 | 0.593 nM |
| B13 | 0.956 nM |
| B14 | 1.69 nM |
| B15 | 0.593 nM |
| B16 | 2.48 nM |
| B17 | 0.593 nM |
| B18 | 0.49 nM |
| B19 | 0.539 nM |
| B20 | 0.79 nM |

| Binder | apparent Kd (screen) |
| --- | --- |
| B21 | 3 nM |
| B22 | 0.49 nM |
| B23 | 0.593 nM |
| B24 | 0.718 nM |
| B25 | 24.4 nM |
| B26 | 0.593 nM |
| B27 | 0.593 nM |
| B28 | 12.5 nM |
| B29 | 4.83 nM |
| B30 | 0.446 nM |
| B31 | 6.43 nM |
| B32 | 0.539 nM |
| B33 | 0.653 nM |
| B34 | 22.2 nM |
| B35 | 0.539 nM |
| B36 | 15.2 nM |
| B37 | 2.25 nM |
| B38 | 0.653 nM |
| B39 | 22.2 nM |
| B40 | 0.539 nM |

| Binder | apparent Kd (screen) |
| --- | --- |
| B41 | 0.653 nM |
| B42 | 0.593 nM |
| B43 | 0.718 nM |
| B44 | 0.49 nM |
| B45 | 1.69 nM |
| B46 | 0.446 nM |
| B47 | 0.49 nM |
| B48 | 0.539 nM |
| B49 | 0.956 nM |
| B50 | 0.539 nM |
| B51 | 0.539 nM |
| B52 | 0.653 nM |
| B53 | 0.653 nM |
| B54 | 0.869 nM |
| B55 | 0.653 nM |
| B56 | 0.593 nM |
| B57 | 2.25 nM |
| B58 | 0.653 nM |
| B59 | 0.956 nM |
